# Numbering of substitutions follows the chain as printed. Names and notes keep the numbering of the source.
# T1: CXCR2:YFP fusion protein (UniProt P25025 1-360)
# T1 construct: whole, on cells; Transiently expressed in HEK293 cells for BRET; not shown: Yellow fluorescent protein (EYFP)
# T1 sequence (looked up): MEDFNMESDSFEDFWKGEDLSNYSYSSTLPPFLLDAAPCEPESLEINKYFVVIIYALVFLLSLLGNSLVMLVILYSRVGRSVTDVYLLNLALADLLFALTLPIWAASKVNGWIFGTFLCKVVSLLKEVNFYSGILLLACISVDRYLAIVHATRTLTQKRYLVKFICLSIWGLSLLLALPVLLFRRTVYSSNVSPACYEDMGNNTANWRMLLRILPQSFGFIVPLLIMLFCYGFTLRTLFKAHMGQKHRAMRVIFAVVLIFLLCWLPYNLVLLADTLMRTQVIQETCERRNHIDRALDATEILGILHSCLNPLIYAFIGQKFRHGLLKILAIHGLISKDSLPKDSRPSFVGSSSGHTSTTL
# B1: anti-CXCR4 Mab 515H7 (antibody, V domains shown)
# VH: EVNLVESGGGLVQPGGSLRLSCATSGFTFTDNYMSWVRQPPGKALEWLGFIRNKANGYTTDYSASVRGRFTISRDNSQSILYLQMNALRAEDSATYYCARDVGSNYFDYWGQGTTLTVSS
# VL: DIVMSQSPSSLAVSAGEKVTMSCKSSQSLFNSRTRKNYLAWYQQKPGQSPKLLIYWASARDSGVPARFTGSGSETYFTLTISRVQAEDLAVYYCMQSFNLRTFGGGTKLEIK
# B2: anti-CXCR4 Mab 414H5 (antibody, V domains shown)
# VH: EVKLVESGGGLVQPGGSLRLSCTTSGFTFTDYYMSWVRQSPGKALEWLTFIRNKANGYTTEYSASVKGRFTISRDNSQSILYLQMNTLRAEDSATYYCARDIPGFAYWGQGTLVTVSA
# VL: DIVMSQSPSSLAVSAGEKVTMSCKSSQSLYNSRTRKNYLAWYQQKPGQSPKLLIYWASTRESGVPDRFTGSGSGTDFTLTITSVQAEDLAVFYCKQSYNLRTFGGGTKLEIK
# B3: anti-CXCR4 chimeric Mab c414H5 (antibody, human IgG1, kappa, V domains shown)
# VH: B2 VH
# VL: DIVMSQSPSSLAVSAGEKVTMSCKSSQSLYNSRTRKNYLAWYQQKPGQSPKLLIYWASTRESGVPDRFTGSGSGTDFTLTITSVQAEDLAVFYCKQSYNLRTFGGGTKLEIKR
# notes: they may be whole chains; also called chimeric 414H5
# B4: humanized antibody Hz515H7 VH1 D76N VL2 (antibody, human IgG1, kappa, V domains shown)
# VH: EVQLVESGGGLVQPGRSLRLSCTASGFTFTDNYMSWVRQAPGKGLEWVGFIRNKANGYTTEYAASVKGRFTISRDNSKSIAYLQMNSLKTEDTAVYYCARDVGSNYFDYWGQGTLVTVSS
# VL: DIVMTQSPSSLAVSLGERATMSCKSSQSLFNSRTRKNYLAWYQQKPGQSPKLLIYWASARDSGVPARFTGSGSETYFTLTISRVQAEDLAVYYCMQSFNLRTFGQGTKVEIKR
# B5: anti-CXCR4 chimeric Mab c515H7 (antibody, human IgG1, kappa, V domains shown)
# VH: B1 VH
# VL: B4 VL with T5S, L15A, R18K, A19V, Q105G, V109L
# notes: they may be whole chains; also called chimeric 515H7
# B6: humanized antibody Hz515H7 VH1 D76N VL2.2 (antibody, human IgG1, kappa, V domains shown)
# VH: B4 VH
# VL: B4 VL with S9D, S49P, A66D, L89V
# B7: humanized antibody Hz515H7 VH1 D76N VL2.1 (antibody, human IgG1, kappa, V domains shown)
# VH: B4 VH
# VL: B4 VL with S9D, S49P, A66D, T69S
# B8: humanized antibody Hz515H7 VH1 D76N VL2.3 (antibody, human IgG1, kappa, V domains shown)
# VH: B4 VH
# VL: B4 VL with S9D, S49P, A66D, R83S, V84L
# B9: CXCR4/Rluc fusion protein (receptor, UniProt P61073 1-352, looked up)
# chain: MEGISIYTSDNYTEEMGSGDYDSMKEPCFREENANFNKIFLPTIYSIIFLTGIVGNGLVILVMGYQKKLRSMTDKYRLHLSVADLLFVITLPFWAVDAVANWYFGNFLCKAVHVIYTVNLYSSVLILAFISLDRYLAIVHATNSQRPRKLLAEKVVYVGVWIPALLLTIPDFIFANVSEADDRYICDRFYPNDLWVVVFQFQHIMVGLILPGIVILSCYCIIISKLSHSKGHQKRKALKTTVILILAFFACWLPYYIGISIDSFILLEIIKQGCEFENTVHKWISITEALAFFHCCLNPILYAFLGAKFKTSAQHALTSVSRGSSLKILSKGKRGGHSSVSTESESSSFHSS
# notes: whole, on cells; Transiently expressed in HEK293 cells for BRET; also called CXCR4 tagged with luciferase; not shown: Renilla reniformis luciferase (Rluc)
# B10: humanized antibody Hz515H7 VH1 VL1 (antibody, human IgG1, kappa, V domains shown)
# VH: B4 VH with N76D
# VL: DIVMTQSPDSLAVSLGERATINCKSSQSLFNSRTRKNYLAWYQQKPGQPPKLLIYWASTRESGVPDRFSGSGSGTDFTLTISSLQAEDVAVYYCMQSFNLRTFGQGTKVEIKR
# notes: Human IgG1/kappa format; no back mutations; also called 515H7 VH variant 1 VL variant 1
# B11: hz515H7 VH1 VL2 (antibody, human IgG1, kappa)
# heavy: not shown
# light: DIVMTQSPSSLAVSLGERATMSCKSSQSLFNSRTRKNYLAWYQQKPGQSPKLLIYWASARDSGVPARFTGSGSETYFTLTISRVQAEDLAVYYCMQSFNLRTFGQGTKVEIKRTVAAPSVFIFPPSDEQLKSGTASVVCLLNNFYPREAKVQWKVDNALQSGNSQESVTEQDSKDSTYSLSSTLTLSKADYEKHKVYACEVTHQGLSSPVTKSFNRGEC
# notes: human IgG1/kappa format; also called VH variant 1 combined with variant 2 of VL
# B12: hz515H7 VH1 combined with the chimeric VL (cVL) (antibody, human IgG1, kappa)
# heavy: not shown
# VL: B11 light with T5S, L15A, R18K, A19V, Q105G, V109L
# notes: Humanized VH variant with the chimeric (murine VL, human Ckappa) light chain of c515H7; IgG1/kappa; also called VH1 cVL
# Target: T2, human CXCR4 receptor (wild type) (human, UniProt P61073 1-352)
# Test: cell-based or functional assay
Binder,% of inhibition of [35S]GTPγS binding stimulated by SDF-1 (100 nM),"IC50, [35S]GTPγS binding, Hela cells, SDF-1 10 nM","IC50, [35S]GTPγS binding, NIH3T3/CXCR4 cells, SDF-1 10 nM",decrease in SDF-1-induced U937 cells migration,inhibition of SDF-1-induced BRET increase (CXCR4 homo-dimers),inhibition of SDF-1-induced β-arrestin recruitment (BRET),"IC50, [35S]GTPγS binding, NIH3T3/CXCR4 cells",percentage of inhibition of SDF-1-induced BRET increase (CXCR4 homo-dimers)
B1,71%,0.2 nM,1.9 nM,> 80%,69%,95%,,
B2,,0.5 nM,1.6 nM,,63%,~20%,,
B3,,0.3 nM,1.1 nM,~50%,75%,~63%,,
B4,86%,,,,,~94%,3.86 nM,~88%
B5,71%,0.6 nM,1.5 nM,> 80%,96%,93%,,
B6,66%,,,,,~82%,5.19 nM,~33%
B7,69%,,,,,~81%,4.05 nM,~65%
B8,58%,,,,,~71%,8.5 nM,~21%

# Target: T1, CXCR2:YFP fusion protein
# Test: BRET in transiently transfected HEK293 cells
# Procedure: The day after, cells were distributed in poly-lysine pre-coated white 96 MW plates in complete culture medium [DMEM supplemented with 10% FBS]. Cells were first cultivated at 37° C. with CO₂ 5% in order to allow cell attachment to the plate. Cells were then starved with 200 μl DMEM/well overnight. Immediately prior to the BRET experiment, DMEM was removed and cells were quickly washed with PBS. […] After incubation for further 10 minutes at 37° C., light-emission acquisition at 485 nm and 530 nm was initiated using the Mithras LB940 multilabel reader (Berthold) (1 s/wavelength/well repeated 15 times at room temperature).
# Calculation of BRET ratio was performed as previously described (Angers et al., 2000): [(emission_{530 nm})−(emission_{485 nm})×Cf]/(emission_{485 nm}), where Cf=(emission_{530 nm})/(emission_{485 nm}) for cells expressing the Rluc fusion protein alone under the same experimental conditions. […] For sake of readability, results are expressed in milliBRET units (mBU); mBU corresponds to the BRET ratio multiplied by 1000.
row,Binder,binding result
1,B9,binds

# Target: T2, human CXCR4 receptor (wild type)
# Test: flow cytometry competition with biotinylated murine 515H7 on CXCR4 transfected NIH3T3 cells
row,Binder,binding result
1,B10,binds
2,B11,binds
3,B12,binds

# Target: T2, human CXCR4 receptor (wild type)
# Test: SPA competition, Mab 100 nM, labelled competitor [125I]SDF-1 (1 nM), CHO-K1/human CXCR4 membranes
# Procedure: CHO-K1 cells, stably and constitutively expressing human CXCR4 receptor were obtained upon transfection of naïve CHO-K¹ cells (ATCC CCL-61) with a mammalian expression vector carrying the whole coding sequence of human CXCR4 receptor (RefSeq NM_{—}003467). Cells were propagated in complete culture medium [DMEM-Ham's F12 supplemented with 5% fetal calf serum (FCS) and 500 μg/ml of geneticin]. Radioligand binding experiments were conducted on cell membranes obtained upon mechanical scrapping of CHO/CXCR4 cells in lysis buffer [Hepes 20 mM, pH 7.4, NaCl 150 mM] followed by centrifugation (10000 g, 15 min). […] Upon centrifugation [1000 g for 10 min.] radioactive counts were measured in a scintillation counter (TopCount, Perkin Elmer).
row,Binder,% inhibition of [125I]SDF-1
1,B3,21%
2,B5,55%

# From patent US20110020218A1 (PIERRE FABRE MEDICAMENT, published 2011)
